Residue numbers refer to the chain shown, from its start. Names may count otherwise.
Experiments:
[1] = target: T1, recombinant human CD39-L3 (NTPDase3, ENTPD3) (human, UniProt O75355 44-485, limits assumed); test: ELISA on plate-coated recombinant huCD39 L3; the single curve has no legend on the sheet, I-394 by the legend paragraph 70
T1 construct: Genbank NP_001239 is printed
T1 sequence: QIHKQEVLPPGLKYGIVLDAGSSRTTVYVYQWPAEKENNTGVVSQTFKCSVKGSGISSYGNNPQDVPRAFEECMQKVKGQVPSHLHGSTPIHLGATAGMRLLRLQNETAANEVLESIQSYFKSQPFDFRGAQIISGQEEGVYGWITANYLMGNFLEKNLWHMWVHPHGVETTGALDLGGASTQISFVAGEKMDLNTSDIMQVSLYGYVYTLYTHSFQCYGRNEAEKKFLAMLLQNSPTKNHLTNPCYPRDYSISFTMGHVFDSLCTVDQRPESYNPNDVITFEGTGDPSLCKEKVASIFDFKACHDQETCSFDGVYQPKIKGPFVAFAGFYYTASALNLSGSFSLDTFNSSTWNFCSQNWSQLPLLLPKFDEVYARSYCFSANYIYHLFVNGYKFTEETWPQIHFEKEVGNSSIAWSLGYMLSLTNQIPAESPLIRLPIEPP
Method: Wells were washed in TBS Tween 20, and further saturated 2H at RT in TBS Blocking buffer. Dose range concentration of primary antibody was incubated in TBS blocking buffer for 2 h at RT. Wells were washed in TBS Tween 20. […] Optical density was measured on Enspire™ at OD=450.

[2] = target: T2, human CD39 (vascular CD39, NTPDase1) expressed at the surface of cells (human, UniProt P49961 1-510); test: flow cytometry on Ramos lymphoma cells, first set of experiments
T2 construct: also called huCD39; CHO-huCD39
T2 sequence: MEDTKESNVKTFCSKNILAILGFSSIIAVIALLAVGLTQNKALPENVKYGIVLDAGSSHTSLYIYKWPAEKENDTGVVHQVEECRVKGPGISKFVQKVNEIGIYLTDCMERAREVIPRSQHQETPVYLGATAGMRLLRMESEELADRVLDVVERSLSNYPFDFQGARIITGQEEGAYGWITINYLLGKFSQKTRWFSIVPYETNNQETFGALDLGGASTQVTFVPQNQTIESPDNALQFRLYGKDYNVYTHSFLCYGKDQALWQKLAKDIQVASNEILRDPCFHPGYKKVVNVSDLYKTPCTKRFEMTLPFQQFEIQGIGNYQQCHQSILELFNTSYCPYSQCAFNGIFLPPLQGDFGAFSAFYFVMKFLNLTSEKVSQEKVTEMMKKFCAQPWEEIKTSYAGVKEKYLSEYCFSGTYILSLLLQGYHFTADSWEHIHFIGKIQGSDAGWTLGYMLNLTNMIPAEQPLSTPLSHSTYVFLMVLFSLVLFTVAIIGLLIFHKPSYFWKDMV
Method: (§1) Cells were incubated with various concentration of unlabeled anti-CD39 antibody from 30 μg/ml to 5×10-⁴ μg/ml, for 30 minutes at 4° C. After washes, cells were incubated with Goat anti-mouse H+L labeled secondary antibody for 30 min at 4° C.

[3] = target: T2, human CD39 (vascular CD39, NTPDase1) …; test: flow cytometry titration on CHO-huCD39 cells
Method: as §1

[4] = target: T3, cynomolgus (Macaca fascicularis) CD39 expressed on CHO cells (cynomolgus (Macaca fascicularis), UniProt A0A7N9DGH8 1-510); test: flow cytometry titration on CHO-cyCD39 cells
T3 construct: whole, on cells; also called CHO-cyCD39; cyCD39
T3 sequence: T2 sequence with V47I, F94Y, V221I, I230T, I329V, K368N, A391S, F489V, T490I
Method: as §1

[5] = target: T2, human CD39 (vascular CD39, NTPDase1) …; test: cell-based or functional assay
[6] = target: T4, soluble recombinant human CD39-M2 extracellular domain protein (human, UniProt P49961 38-478, limits assumed); test: cell-based or functional assay
T4 sequence: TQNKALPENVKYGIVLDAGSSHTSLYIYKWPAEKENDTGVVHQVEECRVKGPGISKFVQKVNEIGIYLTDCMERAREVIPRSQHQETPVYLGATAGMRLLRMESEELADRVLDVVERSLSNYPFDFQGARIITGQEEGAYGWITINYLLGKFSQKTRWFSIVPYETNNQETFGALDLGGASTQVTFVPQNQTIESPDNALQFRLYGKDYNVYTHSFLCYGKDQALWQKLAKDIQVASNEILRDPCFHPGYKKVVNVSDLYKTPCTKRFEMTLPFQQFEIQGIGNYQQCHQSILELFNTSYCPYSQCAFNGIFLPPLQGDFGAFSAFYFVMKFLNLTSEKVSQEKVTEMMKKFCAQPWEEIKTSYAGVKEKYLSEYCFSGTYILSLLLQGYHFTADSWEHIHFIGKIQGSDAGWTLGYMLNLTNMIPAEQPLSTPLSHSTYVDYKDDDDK

B1: antibody I-394 (antibody, V domains shown)
VH: EVQLQQSGPELVKPGASVKMSCKASGYTFTDYNMHWVKQSHGRTLEWIGYIVPLNGGSTFNQKFKGRATLTVNTSSRTAYMELRSLTSEDSAAYYCARGGTRFAYWGQGTLVTVSA
VL: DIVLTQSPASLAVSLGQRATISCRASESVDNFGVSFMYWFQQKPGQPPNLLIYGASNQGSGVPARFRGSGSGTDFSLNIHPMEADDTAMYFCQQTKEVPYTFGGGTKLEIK
notes: Mouse variable regions; Produced in CHO with human IgG1 constant domains carrying L234A/L235E/G237A/A330S/P331S (Kabat EU numbering) and a human Ck constant domain
binding result [1]: no binding (tested: about 50 µg/ml) | EC50 [2]: 0.16 mg/L | EC50 (read off the curve) [3]: ~0.2 mg/L | EC50 (read off the curve) [4]: ~0.4 mg/L | IC50, inhibition of ATPase activity of CD39 on Ramos cells (Cell Titer Glo) [5]: 0.05 mg/L | IC50, inhibition of ATPase activity of soluble CD39 protein (Cell Titer Glo) [6]: 0.003 mg/L

— patent US20190389961A1 (INNATE PHARMA, published 2019)
